These results are taken from patent US20250230247A1 (DREN BIO, published 2025).

In one assay the target is T1, Trop-2 (human, UniProt P09758 27-323).
T1 construct: whole, on cells; also called Trop-2 on A431, HeLa, BxPC-3, SiHa and Capan-2 cells
T1 sequence (looked up): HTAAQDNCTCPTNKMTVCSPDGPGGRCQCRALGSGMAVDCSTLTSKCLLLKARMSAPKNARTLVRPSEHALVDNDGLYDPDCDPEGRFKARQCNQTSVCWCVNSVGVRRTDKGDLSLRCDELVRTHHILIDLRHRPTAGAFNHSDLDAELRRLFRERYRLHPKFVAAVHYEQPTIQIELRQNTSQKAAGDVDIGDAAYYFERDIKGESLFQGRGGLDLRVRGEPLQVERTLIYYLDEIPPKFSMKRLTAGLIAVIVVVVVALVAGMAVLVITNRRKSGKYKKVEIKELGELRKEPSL
Put plainly: flow cytometry on A431 cells (MFI).

The next assay addresses T2, human Dectin-1 isoform A (human, UniProt Q9BXN2 1-247).
T2 construct: also called hDectin-1a; Dectin-1 on HEK-Blue hDectin-1a cells
T2 sequence: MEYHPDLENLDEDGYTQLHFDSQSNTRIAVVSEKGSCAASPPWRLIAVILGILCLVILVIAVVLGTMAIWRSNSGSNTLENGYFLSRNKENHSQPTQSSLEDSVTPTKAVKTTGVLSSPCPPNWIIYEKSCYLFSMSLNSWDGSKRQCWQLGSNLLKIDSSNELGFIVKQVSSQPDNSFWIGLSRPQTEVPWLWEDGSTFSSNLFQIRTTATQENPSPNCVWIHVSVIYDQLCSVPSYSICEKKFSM
Description: flow cytometry on HEK Blue Dectin 1a cells (MFI).

Assay [1] has as its target T3, human Dectin-1 (biosensor tests of Tables 3, 4A and 9; construct not stated) (human, UniProt Q9BXN2 66-247, limits assumed).
T3 construct: also called hDectin-1
T3 sequence (looked up): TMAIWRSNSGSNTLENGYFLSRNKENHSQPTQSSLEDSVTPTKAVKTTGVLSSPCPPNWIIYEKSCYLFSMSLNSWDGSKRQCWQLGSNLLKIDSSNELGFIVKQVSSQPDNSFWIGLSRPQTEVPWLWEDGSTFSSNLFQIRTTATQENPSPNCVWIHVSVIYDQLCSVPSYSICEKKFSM
Description: Fab K dis, run 3.

Assay [2] concerns the target T3, human Dectin-1 (biosensor tests of …). Put plainly: Fab K dis, run 2.
The target is the same in assay [3]. Put plainly: Fab K dis, run 1.
The target is the same in assay [4]. Description: Fab K dis, average of 3.
Assay [5] has the same target. Description: Fab K dis, average of 3. The source holds these as a separate data set.
For assay [6] the target is unchanged. Put plainly: Fab K dis, run 3. This is another data set of the same source.
Assay [7] has the same target. Put plainly: Fab K dis, run 1. This is another data set of the same source.
Assay [8] has the same target. Put plainly: Fab K dis, run 2. This is another data set of the same source.

B1: 2M24.116/Trop2 bispecific antibody (bispecific antibody, V domains shown)
VH 1: QVQLVQSGAEVKKPGASVKVSCKASGYTFTDYYMHWVRQAPGQGLEWMGWINPNEGDTNYAQKFQERITMTRDTSISTAYMELSRLRSDDTAVYYCARNTGAYSFGYWGQGTLVTVSS
VL 1: DIQMTQSPSSVSASVGDRVTITCRASQGISSWLAWYQQKPGKAPKLLIYGASDLQSGVPSRFSGSGSGTDFTLTISSLQPEDFATYYCHQAYSFPFTFGPGTKVDIK
VH 2: QVQLQQSGSELKKPGASVKVSCKASGYTFTNYGMNWVKQAPGQGLKWMGWINTYTGEPTYTDDFKGRFAFSLDTSVSTAYLQISSLKADDTAVYFCARGGFGSSYWYFDVWGQGSLVTVSS
VL 2: DIQLTQSPSSLSASVGDRVSITCKASQDVSIAVAWYQQKPGKAPKLLIYSASYRYTGVPDRFSGSGSGTDFTLTISSLQPEDFAVYYCQQHYITPLTFGAGTKVEIK
notes: hIgG1
In the case of B1, the EC50 with Trop-2 worked out at 8.35 nM; with human Dectin-1 isoform A, 1.76 nM.

B2: parental anti-Trop2 monospecific antibody (antibody, V domains shown)
VH: QVQLQQSGSELKKPGASVKVSCKASGYTFTNYGMNWVKQAPGQGLKWMGWINTYTGEPTYTDDFKGRFAFSLDTSVSTAYLQISSLKADDTAVYFCARGGFGSSYWYFDVWGQGSLVTVSS
VL: DIQLTQSPSSLSASVGDRVSITCKASQDVSIAVAWYQQKPGKAPKLLIYSASYRYTGVPDRFSGSGSGTDFTLTISSLQPEDFAVYYCQQHYITPLTFGAGTKVEIK
For the molecule B2, it took 5.21 nM to reach a half-maximal effect with Trop-2 (EC50).

B3: 2M24A.25 hFab H3 (Fab, V domains shown)
VH: QVQLVQSGAEVKKPGASVKVSCKASGYTFTDYYIHWVRQAPGQGLEWMGWINPNSGDTNYAQKFQGRVTMTRDTSISTAYMELSRLRSDDTAVYYCARNSGSYSFGYWGQGTLVTVSS
VL: DIQMTQSPSSVSASVGDRVTITCRASQGISSWLAWYQQKPGKAPKLLIFGASSLQSGVPSRFSGSGSGTDFTLTVSSLQPEDFATYYCQQAYSFPFTFGPGTKVDIE
notes: Fab; also called 2M24.H3
As for B3, the koff in assay [1] came to 0.00214 s⁻¹; in assay [2], 0.00132 s⁻¹; in [3], 0.00765 s⁻¹; in assay [4] it was 0.0037 s⁻¹.

B4: 2M24A.30 hFab L1 (Fab, V domains shown)
VH: QVQLVQSGAEVKKPGASVKVSCKSSGYTFTDYYIHWVRQAPGQGLEWMGWINPNSGDTNYAQKFQGRITMTRDTSISTAYLELSRLRSDDTAVFYCARNSGSYSFGYWGQGTLVTVSS
VL: DIQMTQSPSSVSASVGDRVTITCRASQGISSWLAWYQQKPGKAPKLLIFGASSLQSGVPSRFSGSGSGTDFTLTISSLQPEDFATYYCQQAYSFPFTFGPGTKVDIE
notes: Fab; also called 2M24.L1
With B4, the koff in [5] is 0.00351 s⁻¹; in assay [6] it was 0.00213 s⁻¹; in assay [7] it was 0.00631 s⁻¹; in assay [8], 0.00208 s⁻¹.

B5: 2M24A.31 hFab L2 (Fab, V domains shown)
VH: QVQLVQSGAEVKKPGASVKVSCKSSGYTFTDYYIHWVRQAPGQGLEWMGWINPNSGDTNYAQKFQGRITMTRDTSISTAYLELSRLRSDDTAVFYCARNSGSYSFGYWGQGTLVTVSS
VL: DIQMTQSPSSVSASVGDRVTITCRASQGISSWLAWYQQKPGKAPKLLIYGASSLQSGVPSRFSGSGSGTDFTLTISSLQPEDFATYYCQQAYSFPFTFGPGTKVDIE
notes: Fab; also called 2M24.L2
B5: the koff in assay [5] amounted to 0.0037 s⁻¹; in [6], 0.00239 s⁻¹; in assay [7] it was 0.00635 s⁻¹; in assay [8], 0.00236 s⁻¹.

B6: 2M24A.23 hFab H1 (Fab, V domains shown)
VH: QVQLVQSGAEVKKPGASVKVSCKSSGYTFTDYYIHWVRQAPGQGLEWMGWINPNSGDTNYAQKFQGRVTMTRDTSISTAYMELSRLRSDDTAVYYCARNSGSYSFGYWGQGTLVTVSS
VL: DIQMTQSPSSVSASVGDRVTITCRASQGISSWLAWYQQKPGKAPKLLIFGASSLQSGVPSRFSGSGSGTDFTLTVSSLQPEDFATYYCQQAYSFPFTFGPGTKVDIE
notes: Fab; also called 2M24.H1
Regarding B6, the koff amounted to 0.00204 s⁻¹ in [1], 0.00143 s⁻¹ in assay [2], 0.00841 s⁻¹ in assay [3] and 0.00396 s⁻¹ in assay [4].

B7: 2M24A.24 hFab H2 (Fab, V domains shown)
VH: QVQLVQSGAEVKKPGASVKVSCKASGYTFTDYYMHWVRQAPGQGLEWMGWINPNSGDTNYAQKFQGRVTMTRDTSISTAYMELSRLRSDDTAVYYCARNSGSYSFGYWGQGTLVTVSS
VL: DIQMTQSPSSVSASVGDRVTITCRASQGISSWLAWYQQKPGKAPKLLIFGASSLQSGVPSRFSGSGSGTDFTLTVSSLQPEDFATYYCQQAYSFPFTFGPGTKVDIE
notes: Fab; also called 2M24.H2
On to B7, for which the koff in assay [1] is 0.0015 s⁻¹; in assay [2], 0.000616 s⁻¹; in assay [3], 0.00826 s⁻¹; in [4], 0.00346 s⁻¹.

B8: 2M24A.33 hFab L4 (Fab, V domains shown)
VH: QVQLVQSGAEVKKPGASVKVSCKSSGYTFTDYYIHWVRQAPGQGLEWMGWINPNSGDTNYAQKFQGRITMTRDTSISTAYLELSRLRSDDTAVFYCARNSGSYSFGYWGQGTLVTVSS
VL: DIQMTQSPSSVSASVGDRVTITCRASQGISSWLAWYQQKPGKAPKLLIYAASSLQSGVPSRFSGSGSGTDFTLTISSLQPEDFATYYCQQAYSFPFTFGPGTKVDIE
notes: Fab; also called 2M24.L4
With B8, the koff was 0.00402 s⁻¹ in assay [5], 0.00314 s⁻¹ in assay [6], 0.00615 s⁻¹ in assay [7] and 0.00278 s⁻¹ in [8].

B9: 2M24A.27 hFab H5 (Fab, V domains shown)
VH: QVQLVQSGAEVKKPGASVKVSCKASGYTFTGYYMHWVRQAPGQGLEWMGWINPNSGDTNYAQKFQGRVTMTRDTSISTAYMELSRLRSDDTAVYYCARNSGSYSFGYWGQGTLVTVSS
VL: DIQMTQSPSSVSASVGDRVTITCRASQGISSWLAWYQQKPGKAPKLLIFGASSLQSGVPSRFSGSGSGTDFTLTVSSLQPEDFATYYCQQAYSFPFTFGPGTKVDIE
notes: Fab; also called 2M24.H5
Take B9: the koff was found to be 0.0032 s⁻¹ in assay [1], 0.00195 s⁻¹ in assay [2], 0.00624 s⁻¹ in assay [3] and 0.0038 s⁻¹ in assay [4].

B10: 2M24.119/Trop2 bispecific antibody (bispecific antibody, V domains shown)
VH 1: QVQLVQSGAEVKKPGASVKVSCKASGYTFTDYYMHWVRQAPGQGLEWMGWINPNEGDTNYAQKFEGRITMTRDTSISTAYMELSRLRSDDTAVYYCARNTGAYSFGYWGQGTLVTVSS
VL 1: DIQMTQSPSSVSASVGDRVTITCRASQGISSWLAWYQQKPGKAPKLLIYGASDLQSGVPSRFSGSGSGTDFTLTISSLQPEDFATYYCQQAYGFPFTFGPGTKVDIK
VH 2: QVQLQQSGSELKKPGASVKVSCKASGYTFTNYGMNWVKQAPGQGLKWMGWINTYTGEPTYTDDFKGRFAFSLDTSVSTAYLQISSLKADDTAVYFCARGGFGSSYWYFDVWGQGSLVTVSS
VL 2: DIQLTQSPSSLSASVGDRVSITCKASQDVSIAVAWYQQKPGKAPKLLIYSASYRYTGVPDRFSGSGSGTDFTLTISSLQPEDFAVYYCQQHYITPLTFGAGTKVEIK
notes: hIgG1
Take B10: the EC50 in the assay with Trop-2 is 7.87 nM; with human Dectin-1 isoform A it was 1.3 nM.

B11: 2M24A.32 hFab L3 (Fab, V domains shown)
VH: QVQLVQSGAEVKKPGASVKVSCKSSGYTFTDYYIHWVRQAPGQGLEWMGWINPNSGDTNYAQKFQGRITMTRDTSISTAYLELSRLRSDDTAVFYCARNSGSYSFGYWGQGTLVTVSS
VL: DIQMTQSPSSVSASVGDRVTITCRASQGISSWLAWYQQKPGKAPKLLIFAASSLQSGVPSRFSGSGSGTDFTLTISSLQPEDFATYYCQQAYSFPFTFGPGTKVDIE
notes: Fab; also called 2M24.L3
Take B11: the koff in assay [5] was found to be 0.00376 s⁻¹; in assay [6], 0.00233 s⁻¹; in [7], 0.00671 s⁻¹; in assay [8], 0.00223 s⁻¹.

B12: 2M24A.28 hFab H6 (Fab, V domains shown)
VH: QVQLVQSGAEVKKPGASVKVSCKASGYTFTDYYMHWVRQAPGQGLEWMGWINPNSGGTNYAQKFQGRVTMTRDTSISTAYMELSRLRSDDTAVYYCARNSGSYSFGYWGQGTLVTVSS
VL: DIQMTQSPSSVSASVGDRVTITCRASQGISSWLAWYQQKPGKAPKLLIFGASSLQSGVPSRFSGSGSGTDFTLTVSSLQPEDFATYYCQQAYSFPFTFGPGTKVDIE
notes: Fab; also called 2M24.H6
Consider B12, for which the koff came out at 0.00151 s⁻¹ in assay [1], 0.000995 s⁻¹ in assay [2], 0.00412 s⁻¹ in assay [3] and 0.00221 s⁻¹ in assay [4].

B13: 2M24A.26 hFab H4 (Fab, V domains shown)
VH: QVQLVQSGAEVKKPGASVKVSCKSSGYTFTDYYMHWVRQAPGQGLEWMGWINPNSGDTNYAQKFQGRVTMTRDTSISTAYMELSRLRSDDTAVYYCARNSGSYSFGYWGQGTLVTVSS
VL: DIQMTQSPSSVSASVGDRVTITCRASQGISSWLAWYQQKPGKAPKLLIFGASSLQSGVPSRFSGSGSGTDFTLTVSSLQPEDFATYYCQQAYSFPFTFGPGTKVDIE
notes: Fab; also called 2M24.H4
With B13, the koff in [1] was 0.0016 s⁻¹; in assay [2], 0.00102 s⁻¹; in assay [3] it was 0.0053 s⁻¹; in [4] it was 0.00264 s⁻¹.

For orientation: EC50 means the concentration giving half of the maximal effect. Lower therefore signals higher potency in that assay. By koff is commonly meant a measure of how fast the partners let go of each other. Read a low koff as slow dissociation.
